Data taken from patent publication EP4480965A1, “TRANSFERRIN RECEPTOR-BINDING MOLECULES, CONJUGATES THEREOF AND THEIR USES TO PREVENT OR TREAT CNS DISEASES” (Vect-Horus, priority 2023, dated 2024).

What was measured:
[1] = target: murine TfR expressed by murine neuroblastoma Neuro-2a cells (mouse) (UniProt Q62351); assay: cell-based or functional assay
[2] = target: mouse transferrin receptor fused to EGFP, expressed on CHO cells (mouse) (UniProt Q62351); assay: cell-based assay on mTfR, apparent Kd
mouse transferrin receptor fused to EGFP, expressed on CHO cells (mouse), sequence (Q62351 whole entry, the tested form may be a part): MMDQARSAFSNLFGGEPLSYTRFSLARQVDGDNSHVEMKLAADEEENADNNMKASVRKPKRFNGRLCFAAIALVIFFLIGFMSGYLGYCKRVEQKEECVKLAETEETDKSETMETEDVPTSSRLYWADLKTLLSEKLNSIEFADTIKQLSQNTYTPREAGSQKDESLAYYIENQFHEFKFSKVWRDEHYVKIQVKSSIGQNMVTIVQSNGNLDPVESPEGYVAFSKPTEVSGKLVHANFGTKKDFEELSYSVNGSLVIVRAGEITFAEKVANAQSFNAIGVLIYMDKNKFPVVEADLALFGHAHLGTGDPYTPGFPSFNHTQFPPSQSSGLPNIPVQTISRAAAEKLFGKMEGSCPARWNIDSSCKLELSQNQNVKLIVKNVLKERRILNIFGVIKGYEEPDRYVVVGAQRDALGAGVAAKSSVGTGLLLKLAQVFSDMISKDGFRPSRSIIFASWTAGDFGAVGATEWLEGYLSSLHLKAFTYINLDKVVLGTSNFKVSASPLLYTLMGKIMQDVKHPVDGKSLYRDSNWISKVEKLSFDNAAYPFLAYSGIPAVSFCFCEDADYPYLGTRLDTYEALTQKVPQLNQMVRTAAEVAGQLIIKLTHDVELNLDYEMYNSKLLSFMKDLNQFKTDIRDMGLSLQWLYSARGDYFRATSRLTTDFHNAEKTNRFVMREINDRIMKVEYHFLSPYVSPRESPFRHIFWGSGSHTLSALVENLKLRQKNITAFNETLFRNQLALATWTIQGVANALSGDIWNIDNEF

murine TfR expressed by murine neuroblastoma Neuro-2a cells (mouse), sequence (Q62351 whole entry, the tested form may be a part): as above

Binder	mean IC50 of mSOD1 mRNA downregulation, free uptake on Neuro-2a cells [1]	Kd [2]
C5-hFc-siSOD1m-5'VP (protein, part only; not given: Fc knob and hole arms, siRNA, part only) chain, part: EVQLVESGGGVVQPGGSLKLSCVASGTDFSINFIRWYRQAPGKQREFVAGFTATGNTNYADSMKGRFTISRDNTKNAVYLQIDSLKPEDTAVYYCYMLDKWGQGTQVTVSSAAAEQKLISEEDLNGAAHHHHHHGS	8.7 nM	–
B8h1-NT(8-13) (protein, part only; not given: nothing essential, part only) chain, part: EVQLVESGGGVVQPGGSLRLSCAASGEIFSINFMRWYRQAPGKGLEWVAGFTRDGSTNYPDSVKGRFTISRDNAKNTVYLQMNSLRPEDTAVYYCYMLDTWGQGTQVTVSSHHHHHHGGGGSGGGGS	–	2.8 nM
